Drawing on a protein production outcome set (Wang et al. 2014), this text covers protein production for 12 sequences.
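Further: failed if final PepcDB status was selected cloned or expressed and not failed if soluble or beyond.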

This data set can be described thus: label from the status in PepcDB records.
Regarding “MTNNLKQRRIILDLAVTLDGFIEGKNGEVDWCIMDPDMGFTDFLNQIDTILYGRKSFDLWGQYIPKNEDPDTEKELWKLVHSKKKYVFSRTQNEIDNQAIFINDNILEEVNKLKKNPGKDIWLYGGASLITTFINLGLVDEFRLSIHPVVLGEGKPLFIDVKQRINLKMVNTRTFSSGVVQIVYHWNG”, the protein production result is given as “not failed”.

Consider “MTNNSTKVCVLLATYNGTKWCLDQVKSILNQEDVNLEVFVSDDLSSDSTTDLLALLNDSRIHILASSYKFGSACQNFFRLVRDVDFSEYDYIAFADQDDLWNPNKLSYSIEQLNAHCADAFSSNVTAFWPDGRARLIVKDQPQREWDFLFESAGPGCTFVLTKKLACNLANFLHNNYEKTKGVALHDWFTYAFARSNSYSWWIDSQPTMMYRQHESNEFGVNSGVTAALSRFRKTSNGWYRNQVILIGDLVGAEDSWPIKRMRRFSLLDRMLLLFNVFAFRRSFRDRIALFFLLLLPQKKLEHHHHHH”, for which the protein production entry is “not failed”.

Take “MTNSEVSTDLPDKPTSDNEQPDKATSDKEQLGKPPSDRDLRNPTSRLRARLQLIGGALASIAAIGAIAGGLVGYWTVWKTLRTDVFPDKQQTQREATARPDVAPRLSLVVLPFANLNNDPEQDYFADSITTDLTTDLAQMPGAFVIGRGTAFTFKNKQIDFKTLGKELGIRWAVQGAVRRNGDQIRVNVSLTDAASGRDIWSDRFDGDRTNLAALQDQITGRLARSLNIELMQAESRRSEKDQSRNPDAMDFTMRGWAKFYEPRSKTEIAQAKDLFDRALHLDPDNVDAMIAKAWCLAIAAGFRWSTSMAEDKEIATDLIDRALAKSSSNALAYVVKGDTLRVFGRPEEALPEYDAALEINPNFPIAYAQKGLALILSGRAREAFSPLQLALRLSPKDPIAVSWYYNLCHAHLHLQEYEEATKDCRRVININNAFWYAYVDLVSAYGASGQLEPARQSLTELNKIRPDFTIQWFREFGYGYSSNPQFRREFDEILDGLRKGGVREQ”: the protein production result is on record as “failed”.

With “MTNTRNENLGYVYGLIAVTAFALTLPAMRAALSALDPVFVALGRGAGAAVLAAVFLWFTRQRLPTREEAKGLIIVAAGAVIGFPLLAAWAMLYVDASHGGVVLGILPLATAVAAALFSNERPSMKFWLFALIGAGLVVGYSLSRAGGTLHPADLALFGSIVCAGVSYAEGARLSKSLGGPQVISWALVFSFPILIIPAIHYAPVSLNLPLESWLGFIYLTVISQYLGFFPWYHGLALGGIAKVGQTQLLQPFLTIIASVLLLGEHADLMTWLVATLVVAVVAVGKHAQVKHNDPESATIADTSPHS”, the protein production entry is reported as “failed”.

For “MTNVGRPIETHAITVGQGSDARSIAALVRAPAQDERPTCIWLGGYRSDMTGTKALEMDDLAASLGVGAIRFDYSGHGASGGAFRDGTISRWLEEALAVLDHFKPEKAILVGSSMGGWIALRLIQELKARHDNPTQVSGMVLIAPAPDFTSDLIEPLLGDRERAELAENGYFEEVSEYSPEPNIFTRALMEDGRANRVMAGMIDTGCPVHILQGMADPDVPYQHALKLVEHLPADDVVLTLVRDGDHRLSRPQDIDRMRNAIRAMIEPRP”, the protein production result is listed as “not failed”.

As for “MTPAARLSAAIGILDRILGGTPAEQALTNWGRASRFAGSGDRAAVRDLVFDALRCRRSFARAGGAETGRGLVLGGLRMAGQEVGDLFTGEGHAPAPPAGSELKPQAPAELEALDCPDWLAPALRDSLGADFAPVMEALRHRAPVFLRVNLARTDRAAAAAELAAEGIVTQPHPLAETALEVTENPRRLQASAAYREGRVELQDAASQAIVAALPLAPGDRVLDYCAGGGGKSLAMAARAPIDLSAHDADPRRMRDLPERAARAGVKVRRLAPGDPARRGPFDLVLADVPCSGSGSWRRAPEGKWSLTPERLAELRAIQSTILDEVAPLVRPGGHLAYATCSLLASENAGQTEAFLERTSGWTRVHQLRLTPLDGGDGFFLDLLQRNG”, the protein production result is given as “failed”.

For “MTPATTTLVFTYGTLKRGFSNHVLMQDLIRSGDASFKGVYQTLDKYPLVCGPYRVPFLLNKPGSGYHVNGELYAVSPRGLSRLDELEGISRGHYIRQPIRLAAAEEEEEEEGDLETEAPSSCVVEAYYAHKSYEEELWRRNRGRSFGAYTENEARGYVKRNDRPQHLSFLDHIRIFVSSPCD”, the protein production result is “failed”.

Regarding “MTPDIRLRVDGRAIVLLTAGCAPGLCPAFAFWACKASAPGRSIAVTPMRSEQQQTDQHADTLHPYACECHAAHLPSSRKKARMRASLFKFGLNLWRPFLFAGIHVTVLSEDYRFARVELRHRPWNRNYVGTHFGGSLFAMTDPFWMLLTIHNLGRDYYVWDKAGNIEFVKPGRGTLTADFVIDDSLLAQLRQATASGEKHLRWFENEVHHRDGEVVARVRKQLYVKRKPAR”, the protein production entry is “failed”.

As for “MTPFPAYVPPDFTRPDLAAAPPVRVAEAPGSGVLPAGFHATSNYPEYVHLGGGRWLLASGSRMDAVLVLDGDMLRVVEPRLVRRGDRVVVGRTENGEEGIYVHTTGFDAPAGAGGDKFTFRSRGTRESPFSRSYEELYDILRHDRDHGHIVWVLGPAVAFDRDSRAAMAGLIGGGYCHALLAGNALATHDLEAALFHTGLGQDIYTQALVAGGHYHHLDVINEVLRHGSLERAIAELGIRDGIIRACLEHRVPVVLAGSIRDDGPLPDVITDSRQAQDAMRAHARRATTVIALATQLHAIAVGNMTPSYRVLDDGTVRPVYFYIVDMSEFGADKLANRGSGQARAILTNVQDFMVNLWNNLKG”, the protein production entry is “failed”.

Regarding “MTPFTLCAATSSGNPHNNHYPNHHHITDQTSLEQVAWLDHVAATYTGDRRSSASFISSDCVVMDIDNDHTDNPDEWITPDDLAELMAGVEFMTATSRNHQKPKRTLSARPRFHVYFPISPVTDADTYAGLKRRLAGRFGFFDPQALDAGRFIYGTTNPETTIHNGTKLLDAWLDEADEIDVFAAFDASTQVIGEGSRNATLSRFAGRVLIRYGQTAQARDLFDRKASLCEPPLSDHELESIWQSACRFAAKVEAQPGYLSPEAYAELTSLRPEDFTDVGQASMLTAEYSSRLAFTEATDWLVYEGGVWSESAPAAQGIAQELTDRQLAEAGHLLEKARDELMVTGANAVLAAASSKAKALGGFTSPQRAAYRAFEDAKAYEAFVLKRRESRAITSCLREAHPMLLTTPARLDADPYLLNTPGGTWDVRDGTRRDHNPLDLITKQTALDPTDTGAEIWNRALNVFFQSDRELIGYVQRIVGLAAIGTVMVEALVIAYGDGRNGKSTFWNTIARVLGTYAGNMSADVLTIGGNRNVKPELAEAKGKRLIIAAESEEGVRLSTSTVKQLASTDQIYAEKKYKAPFAFTPSHTLILYTNHLPRVGAMDAGIWRRLIVIPFNAVIESSSDVKNYADHLYETAGGAVLAWIMEGSRLIHAEDYQLTPPAQVVAASSAYREENNWFAQFLDARCEVDPSLSERAGDLYQEYRAWAQSTSGWARPMADFNATLEQSGFERRKSKHGMYVYGLALTSEFNS”, the protein production entry is on record as “failed”.

Take “MTPGSNIPLSAARVTVDVAAPVRLDVSGLLLTADGKVRSDDDFIFYNQPTGQGVTYRSGGGSAPDAIVVDTSAVPPGIEKIVVTASPDAAGQTFQGIEPTATIRNADDNAVLATFTPPQLGTETALVIVEVYLRNGAWKARAVGQGYSNGLAGIATDFGVTVEEPAAPATPPQPQAVTPPPPPAAAPTMPAAPPAPPAAPPAPAPGTGKINLDKGRVSLQKNQTVSLVKGGRPVLSQVKMGLGWEPAYRGKDIDLDASVIAYGPQRNHIDSCYFGKLSIVNGAIKHSGDNLTGEGGGDDEVIVVDLGRLPQEVSGLVFTVNSFSGQKFTEVAKAYCRLIDAASGEELVRFDLTSAEPQTGVMMAKLIRQYSGEWEMTAIGDFVKSRTVRGMVKPAAQAL”: the protein production entry is listed as “failed”.

“MTPLHGAATPASASAAGSMKASHEASADPRSRFFDERAATWEQRCYPPEARRRLAALVPRFGVERGDCVLDMGTGTGVLIPYLRDGVGDAGRILSFDVSFEMVRRAGCKERDAKGLCVQATAMRIPARDGVFDRVVCFAAFPHFADKPAAMREMARVVRPGGEVVIAHLLSRAELARHHGGHPAVAEDALPDDATMRGLMHDAGLVEGSITDGPGMYVARARKPRTCRAGEGGVPGTPGTPGGRAGGSAGGEGAESAIAGDAEGNGSGVEAGFEARRVFTALKQNDAMHHSAVYGVLSGLLRAFACDAALPHGAPGQGGALRILDVGCGEAADVVQALEGVTVGAYTGVDTSAPALAEARRHLAALGCPVTLIEGDYRLALNTSQGSVDVLWMGLFLHHLPRALKADFLHTAHGLLAPGGMVLAHDPIMGEDDTRETMLARMEAIGRERWHFLTPEEVGMVHRHWSCHGHQERFSDLCALGEAAGFEVDMVWHDADRTYGLVRFMRRG”: the protein production result is “failed”.
